The labels stand for the following.
T1: GDF-7 (R&D SYSTEMS)
T1 sequence (Q7Z4P5 322-450, species assumed, looked up): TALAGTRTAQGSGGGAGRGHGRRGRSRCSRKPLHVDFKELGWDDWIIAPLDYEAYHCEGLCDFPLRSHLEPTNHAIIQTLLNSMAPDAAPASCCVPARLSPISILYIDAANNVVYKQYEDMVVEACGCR

B1: SEQ ID NO 149 (peptide)
peptide: [code s][code s]GGVGGWALFETLRGKEV[code s][code r][P10]YFRAFRKFVKPFKRAFKGSSGK(Biotin)-NH2
modifications: not fully specified; printed as ssGGVGGWALFETLRGKEVsr-P10-YFRAFRKFVKPFKRAFK-GSSGK-B-NH2
B2: SEQ ID NO 147 (peptide)
peptide: YFRAFRKFVKPFKRAFK[(MP)2][code s][code s]GGVGGWALFETLRGKEV[code s][code r]GSSGK(Biotin)-NH2
modifications: not fully specified; printed as YFRAFRKFVKPFKRAFK-(MP)2-ssGGVGGWALFETLRGKEVsr-GSSGK-B-NH2; reading uncertain
B3: SEQ ID NO 150 (peptide)
peptide: SWWGFWNGSAAPVWSRGSSG[code s][code s]GGVGGWALFETLRGKEV[code s][code r]GSSGK(Biotin)-NH2
modifications: not fully specified; printed as SWWGFWNGSAAPVWSR-GSSG-ssGGVGGWALFETLRGKEVsr-GSSGK-B-NH2
B4: SEQ ID NO 153 (peptide)
peptide: [code s][code s]GGVGGWALFETLRGKEV[code s][code r][P10]SWWGFWNGSAAPVWSRGSSGK(Biotin)-NH2
modifications: not fully specified; printed as ssGGVGGWALFETLRGKEVsr-P10-SWWGFWNGSAAPVWSR-GSSGK-B-NH2

Data on 21 molecules can be found in patent publication US20090246248A1, “COATING COMPOSITIONS HAVING IMPROVED PERFORMANCE” (priority 2008, published 2009).

Numbered stars: 1 amine (or outer) side, 2 acyl side, 3 side chain; on linkers, the order of the positions; unused ones are H or OH. Square brackets hold non-standard residues; d marks the D form. Ends that are not written are not given here. * marks the point of attachment. (AUD)6 = six aminoundecanoic acid units between the two peptides, O=C(CCCCCCCCCCNC(=O)CCCCCCCCCCNC(=O)CCCCCCCCCCN[*:1])NCCCCCCCCCCC(=O)NCCCCCCCCCCC(=O)NCCCCCCCCCCC(=O)[*:2]; Biotin = O=C1N[C@H]2[C@H](CS[C@H]2CCCCC(=O)*)N1; P10 = 10 unit polyethylene glycol polymer; Myristoyl = CCCCCCCCCCCCCC(=O)*; Lauroyl = CCCCCCCCCCCC(=O)*; linker = not defined here; (MP)2 = not defined here; AEEA = NCCOCCOCC(=O)O

What is called EC50 is the concentration at which the effect is half-maximal.

Test system in one data set: not listed separately
Description: Critical micelle concentration (methyl orange assay). Type of data set: physicochemical. The following applies: pH 7 PBS, A484. The protocol: Formation of a composition of the invention, and evidence of macromolecular network formation, may be monitored or quantified by any means known in the art. In this example, macromolecular formation was detected using a standard assay for determining critical micelle concentration (“CMC”). In this assay, a solution containing the composition of the invention (in a range of concentrations in pH 7 phosphate buffered saline (“PBS”)) was mixed with a solution of methyl orange (0.04 mM in PBS), and the absorbance of the mixture was measured at 484 nm (A484). CMC is the concentration at which a sharp decrease in absorbance at A484 is observed, a change in the optical properties of methyl orange when trapped in a hydrophobic phase, such as caused by self-association as a macromolecular network (Table 7, “CMC”). Also included in this assay were an assay control peptide having an amino acid sequence of SEQ ID NO:122 (Table 7, “Control”), and compound 119 (a PEGylated peptide, the peptide having an amino acid sequence of SEQ ID NO:122, as described in more detail in Example 6 herein).
As to “SSHRTNHKKNNPKKKNKTRGSSGK [SEQ ID NO:122, assay control peptide]”, the CMC is on record as >>10 μM.

On to “119: Fmoc-NH-(PEG)27-CO2H covalently coupled to a peptide having the amino acid sequence of SEQ ID NO:122 (PEGylated peptide) (SSHRTNHKKNNPKKKNKTRGSSGK; also: Fmoc-NH-(PEG)27-CO2H covalently coupled, site not given here) [Compound 119]”, for which the CMC is listed as >>10 μM.

In the case of “[MYR]2-K-linker-SEQ ID NO: 122 (SSHRTNHKKNNPKKKNKTRGSSGK; also: lysine bearing two myristoyl groups, place not given here, linker, place and nature not given here) [Compound 128]”, the CMC came to 0.123 µM.

“LAU-SEQ ID NO: 122 (Lauroyl-SSHRTNHKKNNPKKKNKTRGSSGK) [Compound 126]” showed a CMC of 0.37 µM.

In the case of “MYR-linker-SEQ ID NO: 122 ({Myristoyl-linker}-SSHRTNHKKNNPKKKNKTRGSSGK; reading uncertain) [Compound 127]”, the CMC was determined as 0.123 µM.

As for “PALM-PALM-PALM-linker-SEQ ID NO: 122 (SSHRTNHKKNNPKKKNKTRGSSGK; also: three palmitoyl groups, place not given here, linker, place and nature not given here) [Compound 129]”, the CMC is 0.123 µM.

Molecule “MYR-SEQ ID NO: 122 (Myristoyl-SSHRTNHKKNNPKKKNKTRGSSGK) [Compound 125]” displayed a CMC of 0.123 µM.

Test system in the next data set: not given
Assay: not given
The class given is binding. The following applies: 18 hour incubation in 10% BSA+10 mM guanidinium chloride; FIG. 1. From the text:
In this example, illustrated are unexpected beneficial properties of the composition of the invention, including but not limited to, one or more improved biophysical properties. Such one or more unexpected beneficial properties of a composition of the invention may comprise an increase in stability. An increase in stability may comprise any one or more of resistance to chemical denaturation, resistance to proteolytic degradation, improved retention to a substrate (e.g., resistance to being competed off a substrate to which it is bound, such as by proteins or other biomolecules found in body tissues). Thus, to ascertain a beneficial property of a composition of the invention, it is compared to the properties of a component of the composition-namely, a substrate-binding peptide by itself (e.g., without fatty acid covalently coupled thereto). An assay was developed that, from our direct comparisons (see, e.g., discussion of FIG. 2 below, and Example 7 herein), mimicked the effect of incubation of substrate-binding peptide with human plasma on stability of binding of a substrate-binding peptide to its substrate. The assay utilized incubations in the presence of 10% bovine serum album (BSA) with 10 mM guanidinium chloride. The high BSA concentration mimics the elevated albumin content of human plasma, and the guanidinium chloride is used to compete with any charged interactions involved in binding of the substrate-binding peptide to its substrate.
In this assay, two immunoassay plates were prepared for a “side-by-side” comparison of binding of a test sample (substrate-binding peptide or composition of the invention) to its substrate with or without the presence of 10% BSA with 10 mM guanidinium chloride. The wells of each 96-well polypropylene plate were incubated with 350 μl BSA 1% in PBS for 30 minutes at 20° C. with 500 rpm shaking. To each well was added one acetone-cleaned 3/32″ 316LVM stainless steel bead, followed by addition of dilutions in PBS of the test sample in a range of concentrations starting from 10 μM. Final volume in each well was 200 μl. The plates were incubated for 1 hour at 20° C. with 500 rpm shaking to allow for the binding to occur. The beads were washed 3 times with 250 μl PBS using a plate washer. […]
In the immunoassay for detecting binding without the presence of 10% BSA with 10 mM guanidinium chloride, added to each well was 200 μl of streptavidin AP (AP is alkaline phosphatase) at 1/200 in TBS+1% BSA. […] When color has developed, each well was read at OD405 nm in endpoint mode using a plate reader. […] When color has developed, the wells were read at OD405 nm in endpoint mode using a plate reader. […]
Consider “119: Fmoc-NH-(PEG)27-CO2H covalently coupled to a peptide having the amino acid sequence of SEQ ID NO:122 (PEGylated peptide) (SSHRTNHKKNNPKKKNKTRGSSGK; also: Fmoc-NH-(PEG)27-CO2H covalently coupled, site not given here) [Compound 119]”, for which the “retention of binding compared to substrate-binding peptide alone (SEQ ID NO:122)” value is on record as “failed to promote retention”.

As to “120: amino acid sequence YWAWAYAW (SEQ ID NO:129) covalently coupled to a peptide having the amino acid sequence of SEQ ID NO:122 (YWAWAYAWSSHRTNHKKNNPKKKNKTRGSSGK) [Compound 120]”, the “retention of binding compared to substrate-binding peptide alone (SEQ ID NO:122)” value is “failed to promote retention”.

Test system in the next data set: not listed separately
Nature of the data set: Vancomycin loading onto titanium bead (HPLC of HCl eluate). The following applies: mixture with vancomycin, 30 mins 20° C., washed with PBS. As for the experimental part: The experimental procedure used for the embodiments described above was as follows. […] All three components were mixed and then applied to the metal bead. […] All three components were mixed and then applied to the metal bead. […] The mixtures were applied to the metal beads and incubated for 30 mins at 20° C. with 700 rpm shaking. The beads were washed three times with 350 ul PBS. Beads were analyzed as follows: 200 ul of 100 mM HCl was added to each bead and incubated for 30 mins at 20° C. with 1,000 rpm shaking. The eluate from each bead was analyzed by HPLC using Phenomenex Luna 3 um column, 50×4.60 mm. Output was compared to a standard curve for vancomycin to determine the amount of vancomycin retained onto the metal bead.
As for “Pyrene-butyric-SSCLIDIYGVCHNFDAY-miniPeg-miniPeg-HKKNNPKKKNKTRGSS-K(Biotin) [SEQ ID NO: 166]”, the “Vancomycin Load” value is 173 pmol/cm2.

On to “RRRRRRR-PSSHRTNHKKNNPKKKNKTRGP-RRRRRRR-K(biotin) [SEQ ID NO: 156]”, for which the “Vancomycin Load” value is on record as <10 pmol/cm2.

For the molecule “MA-AHx-SSCLIDIYGVCHNFDAY-miniPeg-miniPeg-YFRAFRKFVKPFKRAFKGSSK(Biotin) [SEQ ID NO: 165]”, the “Vancomycin Load” value is given as 1,700 pmol/cm2.

On to “SSSCLIDMYGVCHNFDGAYDSSRG-miniPeg-miniPeg-SSHRTNHKKNNPKKKNKTRGSSGK (SSSCLIDMYGVCHNFDGAYDSSRG[AEEA][AEEA]SSHRTNHKKNNPKKKNKTRGSSGK; not fully specified (bridges); printed as SSSCLIDMYGVCHNFDGAYDSSRG-miniPeg-miniPeg-SSHRTNHKKNNPKKKNKTRGSSGK; cysteine pairing not given here) [SEQ ID NO: 163]”, for which the “Vancomycin Load” value came out at 54 pmol/cm2.

For the molecule “MA-Ahx-SSCLIDIYGVCHNFDAY-miniPeg-miniPeg-HKKNNPKKKNKTRGSSK(Biotin) [SEQ ID NO: 164]”, the “Vancomycin Load” value was 278 pmol/cm2.

A further data set addresses T1, GDF-7 (R&D SYSTEMS). Description: GDF-7 capture on peptide-coated sutures; anti-GDF-7 antibody/AP, pNPP read-out; relative EC50; lower limit told of the whole group.
Settings: not given
As to B1, the EC50 is > 0.02 µM.

In the case of B2, the EC50 is > 0.02 µM.

For the molecule [code s][code s]GGVGGWALFETLRGKEV[code s][code r]GSSGYFRAFRKFVKPFKRAFKGSSGK(Biotin)-NH2 (not fully specified) [SEQ ID NO 155], the EC50 was > 0.02 µM.

Regarding [code s][code s]GGVGGWALFETLRGKEV[code s][code r][(MP)2]SWWGFWNGSAAPVWSRGSSGK(Biotin)-NH2 (not fully specified; reading uncertain) [SEQ ID NO 152], the EC50 was > 0.02 µM.

For the molecule [code s][code s]GGVGGWALFETLRGKEV[code s][code r][(MP)2]YFRAFRKFVKPFKRAFKGSSGK(Biotin)-NH2 (not fully specified; reading uncertain) [SEQ ID NO 148], the EC50 was > 0.02 µM.

Turning to [code s][code s]GGVGGWALFETLRGKEV[code s][code r][(AUD)6]SWWGFWNGSAAPVWSRGSSGK(Biotin)-NH2 (not fully specified) [SEQ ID NO 154], the EC50 is > 0.02 µM.

For the molecule B3, the EC50 was > 0.02 µM.

As to B4, the EC50 was > 0.02 µM.
